For data set [1] the following is noted: after 72 hours at 25° C.
Data set [2] is described as follows: Stability study after storage: chemical purity (peptide purity) by RP-UV-HPLC. In kind it is physicochemical.

“hydrogen [N-{[4,7,10-tris(carboxylato-κO-methyl)-1,4,7,10-tetraazacyclododecan-1-yl-κ^4N^1,N^4,N^7,N^10]acetyl-κO}-D-phenylalanyl-L-cysteinyl-tyrosyl-D-tryptophyl-L-lysyl-L-threonyl-L-cysteinyl-L-threoninato cyclic (2→7)-disulfide(4-)](177Lu)lutetate(1-) [^177Lu-DOTA-TATE]”: the radiochemical purity entry in data set [1] is recorded as “at least 95%”.
As for `C[C@@H](O)[C@H](NC(=O)[C@@H]1CSSC[C@H](NC(=O)[C@@H](Cc2ccccc2)NC(=O)CN2CCN(CC(=O)O)CCN(CC(=O)O)CCN(CC(=O)O)CC2)C(=O)N[C@@H](Cc2ccc(O)cc2)C(=O)N[C@H](Cc2c[nH]c3ccccc23)C(=O)N[C@@H](CCCCN)C(=O)N[C@@H]([C@@H](C)O)C(=O)N1)C(=O)O` [DOTA-TATE, DOTA-d-Phe-Cys-Tyr-d-Trp-Lys-Thr-Cys-Thr (cyclo 2,7)], the “stability with respect to chemical purity” value in data set [2] (32° C. for 12 h and 25° for 60 h) is reported as “such high stability was found”. For the same compound, the chemical purity in data set [2] (after 48 hours at 32° C.) and in data set [2] (after 72 hours at 25° C.) was 100% in each case.

(Values after patent US12168063B2, “Stable, concentrated radionuclide complex solutions” (Advanced Accelerator Applications SA, priority 2018, dated 2024).)
